T1: Flag-Mpl-VN (full-length thrombopoietin receptor Mpl fused to the N-terminal half of Venus) (UniProt P40238 26-635)
T1 construct: Inserted between Flag and VN in pBiFC-VN173; also called pFlag-Mpl-VN; source: Cos-1, transiently transfected, in living cells; not shown: Flag, N-terminal, kept; Venus N-terminal fragment 1-173 (VN), C-terminal, kept
T1 sequence (looked up): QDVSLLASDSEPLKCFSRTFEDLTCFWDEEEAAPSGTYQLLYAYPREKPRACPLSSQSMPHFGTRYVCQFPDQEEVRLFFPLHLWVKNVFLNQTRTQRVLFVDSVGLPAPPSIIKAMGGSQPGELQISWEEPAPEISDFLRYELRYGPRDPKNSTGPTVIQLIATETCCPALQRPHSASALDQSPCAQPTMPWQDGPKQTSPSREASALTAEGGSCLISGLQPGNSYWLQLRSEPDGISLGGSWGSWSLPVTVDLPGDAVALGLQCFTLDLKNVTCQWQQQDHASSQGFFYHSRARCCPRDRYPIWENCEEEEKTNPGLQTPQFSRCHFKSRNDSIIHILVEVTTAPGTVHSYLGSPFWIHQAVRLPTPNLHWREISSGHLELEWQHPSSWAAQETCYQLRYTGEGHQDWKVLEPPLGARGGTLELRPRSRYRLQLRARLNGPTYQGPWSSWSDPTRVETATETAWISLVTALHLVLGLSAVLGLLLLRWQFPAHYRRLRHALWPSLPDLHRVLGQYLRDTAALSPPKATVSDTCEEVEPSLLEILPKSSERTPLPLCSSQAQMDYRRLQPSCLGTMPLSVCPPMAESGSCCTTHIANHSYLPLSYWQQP


Target: T1, Flag-Mpl-VN (full-length thrombopoietin …)
Test: split reporter (BiFC, NanoBiT); Venus BiFC read by flow cytometry of Cos-1 cells, 12 h after transfection; 1x10^4 cells, Venus-positive cells against untransfected and empty-vector cells
Conditions: partners not purified

| fold increase of the Venus signal over untransfected Cos-1 cells [fold] | Binder |
| --- | --- |
| 16.2 | HA-hNUDC(1-159)-VC (N-terminal half of hNUDC fused to the C-terminal half of Venus) (domain or fragment, human NUDC (hNUDC), N-terminal half, residues 1-159; Cloned between HA and VC in pBiFC-VC155; also called pHA-hNUDC(1-159)-VC; source: Cos-1, transiently transfected, in living cells; not shown: HA, N-terminal, kept; Venus C-terminal fragment 155-238 (VC), C-terminal, kept) not shown |
| 16.7 | HA-hNUDC-VC (full-length human NUDC fused to the C-terminal half of Venus) (natural protein, Cloned between HA and VC in pBiFC-VC155; also called pHA-hNUDC-VC; phNUDC-VC; source: Cos-1, transiently transfected, in living cells; not shown: HA, N-terminal, kept; Venus C-terminal fragment 155-238 (VC), C-terminal, kept) not shown |

Source: PMC3524126, “Live-Cell Visualization of Intracellular Interaction between a Nuclear Migration Protein (hNUDC) and the Thrombopoietin Receptor (Mpl)” (PLoS ONE, 2012)
